Assay results from US20240166767A1 (SCIRHOM, published 2024).
Positions count from the first letter of the chain named.

B1: humanized antibody 16-B-07 (antibody, V domains shown)
VH: QVTLRESGPALVKPTQTLTLTCTFSGFSLSTFALGVGWIRQPPGKALEWLAHIWWDEDKYYNPALKSRLTISKDTSKNQVVLTITNMDPVDTATYYCARITTYYYGMDYWGQGTLVTVSS
VL: EIVMTQSPDFQSVTPKEKVTITCRASQSIGNHLHWYQQKPDASPKLLIKYASQSISGVPSRFSGSGSGTDFTLTINSLEAEDAATYFCQQSYQWPLTFGQGTKLEIK
notes: Tested as whole humanized antibody produced in CHO cells and detected with anti-human IgG; the general methods speak of human IgG1/Kappa; also called clone 16-B-07
B2: humanized antibody 16-B-05 (antibody, V domains shown)
VH: B1 VH
VL: B1 VL with Q93N
notes: Tested as whole humanized antibody produced in CHO cells and detected with anti-human IgG; the general methods speak of human IgG1/Kappa; The printed LCVD reads SRESGSG where the printed cDNA encodes SRFSGSG; also called clone 16-B-05
B3: humanized antibody 16-B-03 (antibody, V domains shown)
VH: B1 VH with E57D
VL: B1 VL
notes: Tested as whole humanized antibody produced in CHO cells and detected with anti-human IgG; the general methods speak of human IgG1/Kappa; also called clone 16-B-03
B4: humanized antibody 42-B-04 (antibody, V domains shown)
VH: QVTLRESGPALVKPTQTLTLTCTFSGFSLSTFGRGVGWIRQPPGKALEWLAHIWWDDEKYYNSALKSRLTISKDTSKNQVVLTITNMDPVDTATYYCARIQNYGSNYWYFDVWGQGTLVTVSS
VL: AIQLTQSPSSLSASVGDRVTITCRASSRISYMFWYQQKPGKAPKVLIYDTSNLASGVPSRFSGSGSGTDYTLTISSLQPEDFATYYCQQWNAYPLTFGQGTKLEIK
notes: Tested as whole humanized antibody produced in CHO cells and detected with anti-human IgG; the general methods speak of human IgG1/Kappa; also called clone 42-B-04
B5: humanized antibody 23-B-04 (antibody, V domains shown)
VH: B4 VH with R34M, Q101S, D111N
VL: B4 VL with R28S, I29V, F33Y
notes: Tested as whole humanized antibody produced in CHO cells and detected with anti-human IgG; the general methods speak of human IgG1/Kappa; also called clone 23-B-04
B6: humanized antibody 42-B-02 (antibody, V domains shown)
VH: B4 VH
VL: B4 VL with A92S
notes: Tested as whole humanized antibody from transient expression of heavy chain/kappa light chain pairs in CHO cells, detected with anti-human IgG; the general methods speak of human IgG1/Kappa; also called clone 42-B-02

Columns and labels:
[1] = biological target: T1, dog iRhom2 full length wild type C-terminally tagged with 3 consecutive copies of the T7 epitope (dog, UniProt Q00M95 1-827); experiment: FACS on MEF-DKO-Dog-iR2-FL-WT-T7 cells, 3 µg/ml
T1 construct: whole, on cells; also called dog-iR2-FL-WT-T7; expressed by MEF-DKO-Dog-iR2-FL-WT-T7 cells
T1 sequence: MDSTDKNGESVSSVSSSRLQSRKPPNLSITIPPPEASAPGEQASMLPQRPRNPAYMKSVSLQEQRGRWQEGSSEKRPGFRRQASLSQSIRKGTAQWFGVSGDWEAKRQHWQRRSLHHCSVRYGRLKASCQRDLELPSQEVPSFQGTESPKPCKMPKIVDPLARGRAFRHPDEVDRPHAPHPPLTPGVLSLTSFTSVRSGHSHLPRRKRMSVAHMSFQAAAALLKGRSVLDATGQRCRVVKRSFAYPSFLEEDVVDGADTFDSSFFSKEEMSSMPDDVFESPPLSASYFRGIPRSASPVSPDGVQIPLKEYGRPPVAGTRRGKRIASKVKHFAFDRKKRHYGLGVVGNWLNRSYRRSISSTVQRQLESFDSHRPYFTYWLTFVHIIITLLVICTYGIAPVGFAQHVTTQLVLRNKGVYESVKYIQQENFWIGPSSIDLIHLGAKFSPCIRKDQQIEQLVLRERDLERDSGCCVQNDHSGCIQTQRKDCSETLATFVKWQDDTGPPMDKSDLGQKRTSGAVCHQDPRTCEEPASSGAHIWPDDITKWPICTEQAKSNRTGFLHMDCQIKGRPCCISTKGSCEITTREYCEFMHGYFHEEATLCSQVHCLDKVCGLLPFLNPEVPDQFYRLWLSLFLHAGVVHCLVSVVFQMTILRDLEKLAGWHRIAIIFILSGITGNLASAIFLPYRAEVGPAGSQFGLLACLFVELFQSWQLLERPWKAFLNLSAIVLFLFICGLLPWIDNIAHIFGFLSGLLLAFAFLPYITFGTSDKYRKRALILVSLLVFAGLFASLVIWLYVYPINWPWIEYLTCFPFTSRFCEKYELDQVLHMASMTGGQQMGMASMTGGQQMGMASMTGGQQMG
Method: (§1) In brief, immortalized MEF-DKO-EV control cells, MEF-DKO-rhesus-iR2-FL-WT-T7 cells, MEF-DKO-cyno-iR2-FL-WT-T7 cells, MEF-DKO-dog-iR2-FL-WT-T7 cells and MEF-DKO-rabbit-iR2-FL-WT-T7 cells, as well as their respective iRhom1 counterparts, were harvested with 10 mM EDTA in PBS, washed and resuspended in FACS buffer (PBS, 3% FBS, 0.05% sodium azide), and seeded in Nunc U-bottom 96-well plates (Thermo Fisher Scientific, USA) at approximately 3×10⁵ cells per well. To pellet cells and remove supernatants, the plates were centrifuged at 1,500 rpm and 4° C. for 3 minutes. For primary staining, cells were resuspended in 100 μl per well of either FACS buffer alone (controls), mouse monoclonal anti-T7 IgG (Merck Millipore, USA) at 3 μg/ml FACS buffer or the antibodies of the invention also at 3 μg/ml FACS buffer and incubated on ice for 1 hour. Afterwards, plates were centrifuged at 1,500 rpm and 4° C. for 3 minutes and washed twice with 200 μl per well of FACS buffer. For secondary staining of previous anti T7 staining, cells were spun down and resuspended in 100 μl per well of PE-conjugated goat anti-mouse IgG F(ab′)2 detection fragment (Dianova, Germany) diluted 1:100 in FACS buffer. For secondary staining of previous staining with humanized antibodies of invention, cells were spun down and resuspended in 100 μl per well of PE-conjugated goat anti-human IgG F(ab′)2 detection fragment (Dianova, Germany) diluted 1:100 in FACS buffer. Protected from light, the cell suspensions were incubated on ice for 1 hour. Plates were then centrifuged at 1,500 rpm and 4° C. for 3 minutes and washed three times with 200 μl per well of FACS buffer. Finally, cells were resuspended in 150 μl per well of FACS buffer and analyzed using a BD Accuri™ C6 Plus flow cytometer (Becton Dickinson, Germany).

[2] = biological target: T1, dog iRhom2 full length wild type …; experiment: FACS on MEF-DKO-Dog-iR2-FL-WT-T7 cells
Method: as §1, with “For secondary staining of previous staining with humanized antibodies of invention, cells were spun down and resuspended in 100 μl per well of PE-conjugated goat anti-human IgG F(ab′)2 detection fragment (Dianova, Germany) diluted 1:100 in FACS buffer. Protected from light, the cell suspensions were incubated on ice for 1 hour. Plates were then centrifuged at 1,500 rpm and 4° C. for 3 minutes and washed three times with 200 μl per well of FACS buffer.” left out

Binder	binding result [1]	binding result [2]
B1	binds	
B2	binds	
B3		binds
B4	binds	
B5	binds	
B6	binds	
